Data as given in PMC2834698.

Target: Arabidopsis thaliana transthyretin-like protein (TTL), 311-residue cytoplasmic isoform (Arabidopsis thaliana)
Experiment: SEC + other: sucrose density gradient rate zonal ultracentrifugation; Siegel and Monty method: Stokes radius from analytical gel filtration (Superose 12 10/300, 0.5 ml/min) and sedimentation coefficient from 5 to 20% sucrose gradients (25 h 15 min, 260800 g, SW41 Ti), both in buffer C (150 mM NaCl, EDTA, 20 mM Tris-HCl, pH 8.0); native mass 137.3 kDa against a subunit of 36.6 kDa

stoichiometry N: 4
Substance: Arabidopsis thaliana transthyretin-like protein (TTL), 311-residue cytoplasmic isoform (enzyme)
